Numbering of substitutions follows the chain as printed. Names and notes keep the numbering of the source.
T1: mouse LIGHT, full length, on transfected cells (mouse, UniProt Q9QYH9 1-239)
T1 construct: whole, on cells; also called mLIGHT; mLIGHT-IRES-EGFP
T1 sequence (looked up): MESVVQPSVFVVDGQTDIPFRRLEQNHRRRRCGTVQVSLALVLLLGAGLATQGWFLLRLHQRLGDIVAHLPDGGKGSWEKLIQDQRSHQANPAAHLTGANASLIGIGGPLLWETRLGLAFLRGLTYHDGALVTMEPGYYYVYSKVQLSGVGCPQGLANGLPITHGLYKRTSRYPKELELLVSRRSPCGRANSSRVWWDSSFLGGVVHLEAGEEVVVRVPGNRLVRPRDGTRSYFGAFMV

T2: mouse BTLA, full length, fused to EGFP, on HEK293 FreeStyle cells (mouse, UniProt Q7TSA3 30-306)
T2 construct: whole, on cells; also called mBTLA; mBTLA-EGFP; not shown: EGFP fused at the C-terminus (pEGFP-N1 vector)
T2 sequence (looked up): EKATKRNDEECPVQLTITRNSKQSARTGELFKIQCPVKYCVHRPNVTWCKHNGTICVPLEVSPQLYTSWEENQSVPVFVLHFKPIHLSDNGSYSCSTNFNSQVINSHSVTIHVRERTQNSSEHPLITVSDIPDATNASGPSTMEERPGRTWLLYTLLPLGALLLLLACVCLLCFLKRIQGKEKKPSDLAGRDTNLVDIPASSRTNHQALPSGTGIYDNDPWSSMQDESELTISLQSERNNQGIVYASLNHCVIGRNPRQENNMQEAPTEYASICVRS

T3: single chain homotrimeric mouse LIGHT extracellular domain (G73-V239), N-terminal HHHHHHGG, joined by two … (mouse, UniProt Q9QYH9 73-239)
T3 construct: Soluble analyte of the Octet assay; from Expi293 cells; also called mLIGHT
T3 sequence: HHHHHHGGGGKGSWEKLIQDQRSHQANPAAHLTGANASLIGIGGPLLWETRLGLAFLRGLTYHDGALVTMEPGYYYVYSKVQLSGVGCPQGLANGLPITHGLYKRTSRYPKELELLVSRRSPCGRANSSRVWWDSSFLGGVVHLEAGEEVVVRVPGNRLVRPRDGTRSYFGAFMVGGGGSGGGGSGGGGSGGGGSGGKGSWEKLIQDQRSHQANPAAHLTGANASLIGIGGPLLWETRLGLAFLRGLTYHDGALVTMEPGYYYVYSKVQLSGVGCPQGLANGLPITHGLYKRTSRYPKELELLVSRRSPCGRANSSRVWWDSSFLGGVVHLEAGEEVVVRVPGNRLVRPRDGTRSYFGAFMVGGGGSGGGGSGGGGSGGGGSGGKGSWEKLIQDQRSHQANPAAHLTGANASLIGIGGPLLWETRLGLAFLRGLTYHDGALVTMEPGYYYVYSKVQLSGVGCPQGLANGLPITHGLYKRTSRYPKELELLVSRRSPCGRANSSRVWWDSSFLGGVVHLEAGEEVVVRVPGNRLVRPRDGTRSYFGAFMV

B1: mouse HVEM G72D, full length, fused to mCherry, on cells (receptor)
chain: QPSCRQEEFLVGDECCPMCNPGYHVKQVCSEHTDTVCAPCPPQTYTAHANGLSKCLPCGVCDPDMGLLTWQECSSWKDTVCRCIPGYFCENQDGSHCSTCLQHTTCPPGQRVEKRGTHDQDTVCADCLTGTFSLGGTQEECLPWTNCSAFQQEVRRGTNSTDTTCSSQVVYYVVSILLPLVIVGAGIAGFLICTRRHLHTSSVAKELEPFQEQQENTIRFPVTEVGFAETEEETASN
notes: also called mHVEM G72D; not shown: mCherry fused at the C-terminus (pmCherry-N1 vector)
B2: mouse HVEM L94D, full length, fused to mCherry, on cells (receptor)
chain: B1 chain with D34G, L56D
notes: also called mHVEM L94D; not shown: mCherry fused at the C-terminus (pmCherry-N1 vector)
B3: mouse HVEM G72R-V74A double mutein, full length, fused to mCherry, on cells (receptor)
chain: B1 chain with D34R, V36A
notes: also called mHVEM G72R-V74A; mHVEM^-BT/160; not shown: mCherry fused at the C-terminus (pmCherry-N1 vector)
B4: mouse HVEM V74D, full length, fused to mCherry, on cells (receptor)
chain: B1 chain with D34G, V36D
notes: also called mHVEM V74D; not shown: mCherry fused at the C-terminus (pmCherry-N1 vector)
B5: mouse HVEM L94A, full length, fused to mCherry, on cells (receptor)
chain: B1 chain with D34G, L56A
notes: also called mHVEM L94A; not shown: mCherry fused at the C-terminus (pmCherry-N1 vector)
B6: mouse HVEM H86D, full length, fused to mCherry, on cells (receptor)
chain: B1 chain with D34G, H48D
notes: also called mHVEM H86D; not shown: mCherry fused at the C-terminus (pmCherry-N1 vector)
B7: mouse HVEM R43D, full length, fused to mCherry, on cells (receptor)
chain: B1 chain with R5D, D34G
notes: also called mHVEM R43D; not shown: mCherry fused at the C-terminus (pmCherry-N1 vector)
B8: mouse HVEM L90A, full length, fused to mCherry, on cells (receptor)
chain: B1 chain with D34G, L52A
notes: also called mHVEM L90A; not shown: mCherry fused at the C-terminus (pmCherry-N1 vector)
B9: mouse HVEM M56D, full length, fused to mCherry, on cells (receptor)
chain: B1 chain with M18D, D34G
notes: also called mHVEM M56D; not shown: mCherry fused at the C-terminus (pmCherry-N1 vector)
B10: mouse HVEM (Q39-Q206), wild type, fused to human IgG1 and a hexa-His tag (Fc fusion)
chain (part 1 of 2): QPSCRQEEFLVGDECCPMCNPGYHVKQVCSEHTGTVCAPCPPQTYTAHANGLSKCLPCGVCDPDMGLLTWQECSSWKDTVCRCIPGYFCENQDGSHCSTCLQHTTCPPGQRVEKRGTHDQDTVCADCLTGTFSLGGTQEECLPWTNCSAFQQEVRRGTNSTDTTCSSQ
chain (part 2 of 2): HHHHHH
notes: From Expi293 cells; also called mHVEM-hIgG1; mHVEMWT; not shown: human IgG1
B11: mouse HVEM (Q39-Q206) G72R-V74A fused to human IgG1 and a hexa-His tag, soluble form (Fc fusion)
chain (part 1 of 2): B10 chain (part 1 of 2) with G34R, V36A
chain (part 2 of 2): HHHHHH
notes: also called mHVEM^-BT/160; mHVEM-BT/160; not shown: human IgG1
B12: mouse BTLA, soluble protein (analyte of the Octet assay) (receptor, UniProt Q7TSA3 30-183, looked up)
chain: EKATKRNDEECPVQLTITRNSKQSARTGELFKIQCPVKYCVHRPNVTWCKHNGTICVPLEVSPQLYTSWEENQSVPVFVLHFKPIHLSDNGSYSCSTNFNSQVINSHSVTIHVRERTQNSSEHPLITVSDIPDATNASGPSTMEERPGRTWLLY
notes: The construct is not described; also called mBTLA; mBTLA-penta-His-tag
B13: mouse CD160 residues I30-H154 with C-terminal HHHHHHGGGGSGLNDIFEAQKIEWHE, refolded from E. coli inclusion bodies (receptor)
chain: IHVTSSASQKGGRLDLTCTLWHKKDEAEGLILFWCKDNPWNCSPETNLEQLRVKRDPETDGITEKSSQLVFTIEQATPSDSGTYQCCARSQKPEIYIHGHFLSVLVTGNHTEIRQRQRSHPDFSHHHHHHHGGGGSGLNDIFEAQKIEWHE
modifications: biotin (mCD160-biotin in the cell staining assay; site not stated)
notes: range 30-154; also called mCD160; mCD160-biotin

What was measured:
[1] = target: T1, mouse LIGHT, full length, on …; assay: flow cytometry, cell-cell interaction assay
Experimental: (§1) After 2˜3 days, the cells were harvested and diluted to […]. […] These cells were further recorded and analyzed by flow cytometry. […] The cells were incubated for 30 min with shaking at room temperature and washed once by PBS containing 0.2% BSA (PBS-BSA). The cells were re-suspended in 100 uL of PBS-BSA and analyzed by flow cytometry.

[2] = target: T2, mouse BTLA, full length, fused to EGFP, …; assay: flow cytometry, cell-cell interaction assay
Experimental: as §1

[3] = target: T1, mouse LIGHT, full length, on …; assay: cell-cell flow cytometry (mHVEM-mCherry cells + mLIGHT-IRES-EGFP cells)
Experimental: as §1

[4] = target: B12; assay: cell-protein flow cytometry (mHVEM-mCherry cells + mBTLA-His/anti-His green)
Experimental: as §1

[5] = target: T2, mouse BTLA, full length, fused to EGFP, …; assay: cell-cell flow cytometry (mHVEM-mCherry cells + mBTLA-EGFP cells)
Experimental: as §1

[6] = target: B13; assay: cell-protein flow cytometry (mHVEM-mCherry cells + mCD160-biotin/streptavidin-AF488)
Experimental: as §1

[7] = target: T3, single chain homotrimeric mouse LIGHT …; assay: Octet bio-layer interferometry, mHVEM-hIgG1 on the sensor, mLIGHT in solution
Excerpt: (§2) Error bars represent results from at least triplicates. […] Ligands BTLA, CD160 and LIGHT are modeled based on the HVEM structures and are shown as labeled surfaces.
(§3) The results were exported and then analyzed using Prism 5 (GraphPad Software). Final response curves were generated after subtracting the responses of the control groups.

[8] = target: T3, single chain homotrimeric mouse LIGHT …; assay: Octet bio-layer interferometry, mHVEM-hIgG1 on the sensor, LIGHT in solution
Excerpt: as §3

[9] = target: B12; assay: Octet bio-layer interferometry, mHVEM-hIgG1 on the sensor, mBTLA in solution
Excerpt: as §2, §3

[10] = target: B13; assay: Octet bio-layer interferometry, mHVEM-hIgG1 on the sensor, mCD160 in solution
Excerpt: as §2, §3

[11] = target: B10; assay: Octet bio-layer interferometry, mHVEM-hIgG1 on the sensor, mBTLA in solution
Excerpt: as §2, §3

[12] = target: B10; assay: Octet bio-layer interferometry, mHVEM-hIgG1 on the sensor, BTLA in solution
Excerpt: as §3

[13] = target: B10; assay: Octet bio-layer interferometry, mHVEM-hIgG1 on the sensor, CD160 in solution
Excerpt: as §3

[14] = target: B10; assay: Octet bio-layer interferometry, mHVEM-hIgG1 on the sensor, mCD160 in solution
Excerpt: as §2, §3

## B1
[1]
  binding result: binds

## B2
[2]
  binding result: binds

## B3
[3]
  binding result: binds
[4]
  binding result: no binding
[5]
  binding result: no binding
[6]
  binding result: no binding

## B4
[1]
  binding result: binds

## B5
[2]
  binding result: binds

## B6
[2]
  binding result: binds

## B7
[1]
  binding result: binds
[2]
  binding result: binds

## B8
[2]
  binding result: binds

## B9
[1]
  binding result: binds
[2]
  binding result: binds

## B10
[7]
  Kd: 16.2 nM
[8]
  Kd: 16.2 nM

## B11
[7]
  Kd: 29.3 nM
[9]
  binding result: no binding
[8]
  Kd: 29.3 nM
[10]
  binding result: no binding

## B12
[11]
  Kd: 1100 nM
[12]
  Kd: 1100 nM

## B13
[13]
  Kd: 11600 nM
[14]
  Kd: 11600 nM

Reference: patent US20250326817A1 (LA JOLLA INSTITUTE FOR IMMUNOLOGY, published 2025)
